Experimental data: PMC4316190, “Crystal structure of UbiX, an aromatic acid decarboxylase from the psychrophilic bacterium Colwellia psychrerythraea that undergoes FMN-induced conformational changes” (Scientific Reports, 2015)

Key:
CpsUbiX = biological target: T1, CpsUbiX (Colwellia psychrerythraea, UniProt Q489U8); assay: X-ray crystal structure, […] Å; format: binding; conditions: co-purified from E. coli; crystals at pH 5.8; site at the interface of three subunits
T1 construct: gene ubiX; full length, residues 1-206, pET-28a(+) NdeI/XhoI, E. coli BL21(DE3), His-tag cleaved with thrombin, dodecamer; FMN site formed by three neighbouring subunits

[1] = biological target: the molecule itself; assay: crystal structure; wild type CpsUbiX with bound FMN; space group C222(1), 6 monomers in the asymmetric unit, dodecamer generated by crystallographic symmetry; 200 mM NaCl, 100 mM potassium/sodium phosphate pH 5.8, 11% PEG-8000; 1.9 Å
[2] = biological target: the molecule itself; assay: crystal structure; V47S mutant CpsUbiX without FMN; space group P23, one molecule in the asymmetric unit, dodecamer generated by crystallographic symmetry; 0.1 M tri-sodium citrate pH 5.4, 0.5 M ammonium sulfate, 1.2 M lithium sulfate, 293 K; 1.76 Å

Molecule: Cc1cc2nc3c(=O)[nH]c(=O)nc-3n(C[C@H](O)[C@H](O)[C@H](O)COP(=O)(O)O)c2cc1C [FMN]
- X-ray crystal structure, 1.9 Å (CpsUbiX): FMN-bound (wild type) and FMN-free (V47S mutant) CpsUbiXs were deposited in the Protein Data Bank

B1: Colwellia psychrerythraea 34H UbiX protein (CpsUbiX), wild type, FMN-bound form (enzyme, UniProt Q489U8 1-206, looked up)
chain: MNNDFNGKITLAITGASGASYAMRLIECLIAANYQLYILCSSAGRIVLDTEVGVKIPSSPDAASKFLTEKYQAKDQQITVFGKEQWFSPVASGSSAPKQMVVCPCSTGTMAAICHGMSDNLIERAADVVIKERGQLILMVRETPFSTLHLQNMLSLSQQGVTIMPASPGFYHKVETIEDLIDFMVGRVLDHLGIEQDIMPRWGYNI
notes: UbiX (3-octaprenyl-4-hydroxybenzoate carboxylase) of Colwellia psychrerythraea strain 34H (ATCC BAA-681), UniProt Q489U8, full-length gene, residues 1-206; Cloned between the NdeI and XhoI sites of pET-28a(+); the His-tag was cleaved with thrombin, so a few vector residues probably remain at the N-terminus (surmised); also called 3-octaprenyl-4-hydroxybenzoate carboxylase; wild type CpsUbiX; …
- stoichiometry N [1]: 12

B2: V47S mutant CpsUbiX (FMN-free form) (enzyme, Colwellia psychrerythraea 34H, UniProt Q489U8 1-206, looked up)
chain: MNNDFNGKITLAITGASGASYAMRLIECLIAANYQLYILCSSAGRISLDTEVGVKIPSSPDAASKFLTEKYQAKDQQITVFGKEQWFSPVASGSSAPKQMVVCPCSTGTMAAICHGMSDNLIERAADVVIKERGQLILMVRETPFSTLHLQNMLSLSQQGVTIMPASPGFYHKVETIEDLIDFMVGRVLDHLGIEQDIMPRWGYNI
notes: UbiX (3-octaprenyl-4-hydroxybenzoate carboxylase) of Colwellia psychrerythraea strain 34H, UniProt Q489U8, residues 1-206, with V47S; it was expressed and purified as the wild type; also called V47S CpsUbiX; FMN-free CpsUbiX; source: E. coli BL21 (DE3), purified by methods similar to the wild type (Ni-NTA, thrombin cleavage, Superdex-200 SEC); copies: 12
- stoichiometry N [2]: 12
